Our source for the protein stability index values is the supplement of paper PMC10567573.

This data set in a line: protein stability index of a GFP-peptide fusion (GPS, HEK-293T) (PSI 1-6); higher = more stable. Particulars: c terminus: a fixed tail appended.

± gives the standard deviation.
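Further: 24-mer peptide tiles fused after GFP, lentivirally expressed, FACS-sorted into six equal bins by GFP/DsRed ratio, decoded by Illumina sequencing, PSI is the read-weighted mean bin number.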

Turning to QYYDDEKKTWKILTIMPYNSAHHC [KLHL14], the protein stability index runs as follows: (treatment: DMSO) 2.56 ± 0.43; (treatment: MLN4924 1 uM, 8 h) 2.59 ± 0.42.
For QYYEACRKAAKSLIKLGLERFHGV [ACSBG2], in that order: 3.51 ± 1.3 and 3.45 ± 0.44.
Regarding RAASAMQFFTKGYQETISDVLNDA [GCH1], the protein stability index runs as follows: (treatment: DMSO) 3.38 ± 0.12; (treatment: MLN4924 1 uM, 8 h) 3.53 ± 0.072.
On to RCVRVFLEHGADPTVKDLIGGFTA [ASB7], for which the protein stability index reads like this: (treatment: DMSO) 2.4 ± 0.78; (treatment: MLN4924 1 uM, 8 h) 2.04 ± 0.41.
RDCGEEMQNGAGASRTSTIFLNGN [TNXB] yielded a protein stability index (treatment: DMSO) of 3.99 ± 0.56 and a protein stability index (treatment: MLN4924 1 uM, 8 h) of 4.34 ± 0.23.
RDGEPEPMQKLQDLVNRTPWKKCC [RBBP5]: the protein stability index is, setting by setting: (treatment: DMSO) 4 ± 0.21; (treatment: MLN4924 1 uM, 8 h) 4.04 ± 0.21.
For the sequence RDLASVPPELTASRQSFRMAMGNP [DVL3], the protein stability index was 3.75 ± 0.32 (treatment: DMSO) and 3.81 ± 0.13 (treatment: MLN4924 1 uM, 8 h).
Regarding RDSSFLISGGFDRTVAIWDVAEGY [WDR88], the protein stability index is, setting by setting: (treatment: DMSO) 2.71 ± 0.16; (treatment: MLN4924 1 uM, 8 h) 2.86 ± 0.23.
For the sequence REDKATIKCETSPPSSPRTLRLEK [PPFIA4], the protein stability index by setting is: (treatment: DMSO) 5.51 ± 0.18; (treatment: MLN4924 1 uM, 8 h) 5.45 ± 0.15.
Consider REEDFPSLREYNDFLEEVEEIVFN [MNAT1], for which the protein stability index is 3.82 ± 0.16 (treatment: DMSO) and 3.73 ± 0.28 (treatment: MLN4924 1 uM, 8 h).
In the case of REEEEKTPPETKPDPPVNFLRQKV [PCMTD2], the protein stability index is 5.34 ± 0.26 (treatment: DMSO) and 5.29 ± 0.087 (treatment: MLN4924 1 uM, 8 h).
With REKGGKVLVHCEAGISRSPTICMA [DUSP5], the protein stability index is, setting by setting: (treatment: DMSO) 2.93 ± 0.27; (treatment: MLN4924 1 uM, 8 h) 3.03 ± 0.38.
For RELAERGVRIVSRGRTQLFSLNPR [PCDHGA10], in that order: 3.2 ± 0.35 and 3.33 ± 0.12.
For RENGNNSSDKVRGIETLESVPIIG [PHTF1], in that order: 4.8 ± 0.33 and 4.53 ± 0.36.
In the same order, the values of RESCPPLGLETLKITDFQLHASTV [CPXM2] are 3.29 ± 0.15 and 3.32 ± 0.14.
On to REVRRAQARLLNPSATRAKPGPQD [NOP53], for which the protein stability index by setting is: (treatment: DMSO) 4.75 ± 0.28; (treatment: MLN4924 1 uM, 8 h) 4.66 ± 0.14.
Turning to RGIFVVRGENVVLLGEIDLEKESD [LSM1], the protein stability index by setting is: (treatment: DMSO) 2.37 ± 0.23; (treatment: MLN4924 1 uM, 8 h) 2.31 ± 0.52.
For RGKKLMVLTEPILIETYTGLMSFI [TPRG1], in that order: 2.95 ± 0.34 and 2.6 ± 0.48.
For RGPPRGLRGGRGGSGGTRGPPSRG [RBMX], in that order: 5.18 ± 0.2 and 4.92 ± 0.33.
In the case of RHDVIVSIVTAAKKDILLVNDHLL [PDS5B], the protein stability index (treatment: DMSO) stood at 2.51 ± 0.31 and the protein stability index (treatment: MLN4924 1 uM, 8 h) stood at 2.29 ± 0.5.
For the sequence RHSISMPAMRNSPTFKSFEERVET [TPD52L1], the protein stability index (treatment: DMSO) was found to be 4.66 ± 0.18 and the protein stability index (treatment: MLN4924 1 uM, 8 h) came to 4.75 ± 0.42.
On to RIHTEEKPYKCQQCDKRFRWSSDL [ZNF75A], for which the protein stability index was 3 ± 0.2 (treatment: DMSO) and 2.94 ± 0.091 (treatment: MLN4924 1 uM, 8 h).
For RISNPSDDNSCEDLEEERREEEEK [PCMTD2], in that order: 5.59 ± 0.099 and 5.704 ± 0.05.
With RKLLEGEESRISVPVHSFASLNIK [PRPH], the protein stability index (treatment: DMSO) came out at 2.96 ± 0.23 and the protein stability index (treatment: MLN4924 1 uM, 8 h) stood at 3.31 ± 0.41.
In the case of RKRIRTYLKSCRRMKKNGMEMTRP [NOL4L], the protein stability index stood at 3.28 ± 0.21 (treatment: DMSO) and 3.32 ± 0.22 (treatment: MLN4924 1 uM, 8 h).
Regarding RKRRLFCTMEPEPVQPGMLIDVCK [TRIM35], the protein stability index by setting is: (treatment: DMSO) 2.6 ± 0.41; (treatment: MLN4924 1 uM, 8 h) 2.69 ± 0.12.
For RKVCVGGKRRKDEISVDSLDFSKK [PPP2R2B], in that order: 4.33 ± 0.26 and 4.31 ± 0.27.
RKWHKASNYIFVAIFWIVFLLLIV [P2RY14]: the protein stability index reads like this: (treatment: DMSO) 3.34 ± 0.35; (treatment: MLN4924 1 uM, 8 h) 3.43 ± 0.17.
In the same order, the values of RLDLAAVTLRRGLRSRASRCRPRS [FAM189A2] are 3.7 ± 0.15 and 3.89 ± 0.32.
For RLLQASGGGLTGVSGSHFVGVDGV [PCDHGA10], in that order: 2.78 ± 0.46 and 3.01 ± 0.28.
In the same order, the values of RLMDVCATSRTDREIKVTLVFEHV [CDK4] are 2.65 ± 0.57 and 2.5 ± 0.15.
In the case of RMGDADYLAAWHRLVLPIAYEFNP [HDAC6], the protein stability index runs as follows: (treatment: DMSO) 2.27 ± 0.56; (treatment: MLN4924 1 uM, 8 h) 2.3 ± 0.44.
Take RMIPGQPPASARRLSVPRDSACDE [IRX6]: the protein stability index by setting is: (treatment: DMSO) 5.29 ± 0.24; (treatment: MLN4924 1 uM, 8 h) 5.29 ± 0.15.
As for RMKKNGMEMTRPTPPHLTSAMAEN [NOL4L], the protein stability index was found to be 4.41 ± 0.071 (treatment: DMSO) and 4.37 ± 0.29 (treatment: MLN4924 1 uM, 8 h).
Take RMQYAPDLMKRLRFALIPAPELVE [KLHL14]: the protein stability index (treatment: DMSO) worked out at 2.25 ± 0.1 and the protein stability index (treatment: MLN4924 1 uM, 8 h) worked out at 2.05 ± 0.088.
Turning to RNKESPVFAPVYFPEELHRKAALE [HMOX1], the protein stability index is, setting by setting: (treatment: DMSO) 4.11 ± 0.4; (treatment: MLN4924 1 uM, 8 h) 4.147 ± 0.023.
As for RPISGTAVAHKTPRCPGSVNEKLP [SMOC2], the protein stability index worked out at 4.53 ± 0.14 (treatment: DMSO) and 4.59 ± 0.26 (treatment: MLN4924 1 uM, 8 h).
In the same order, the values of RPNDDSLAFLDKIKSVKESLQESV [IQUB] are 3.64 ± 0.034 and 3.34 ± 0.32.
For RRRVPVRNLGKVVHYAKVQLRFQH [PLEKHN1], in that order: 2.35 ± 0.39 and 2.29 ± 0.25.
RRSNSPDKFKRPTPPPSPNTQTPV [CCDC6] gave a protein stability index (treatment: DMSO) of 5.27 ± 0.19 and a protein stability index (treatment: MLN4924 1 uM, 8 h) of 5.25 ± 0.16.
For RRWHKSRLLQASGGGLTGVSGSHF [PCDHGA10], in that order: 2.67 ± 0.21 and 2.83 ± 0.16.
For RSIRQYYKKGIIRKPDISQRLVYQ [SPDEF], in that order: 2.84 ± 0.24 and 2.97 ± 0.42.
In the case of RSLFIDRTIVKGYNENVYTEDGKL [MED27], the protein stability index came to 4.07 ± 0.25 (treatment: DMSO) and 4.12 ± 0.21 (treatment: MLN4924 1 uM, 8 h).
For the sequence RSPTLEPPRGRSEAPDSLNGPLGP [SMG5], the protein stability index was determined as 4.89 ± 0.26 (treatment: DMSO) and 4.77 ± 0.055 (treatment: MLN4924 1 uM, 8 h).
Regarding RTLSLIVCTFTYLLVGAAVFDALE [KCNK9], the protein stability index came to 2.82 ± 0.7 (treatment: DMSO) and 3.19 ± 0.81 (treatment: MLN4924 1 uM, 8 h).
As for RTNDGKITYPPGVKEISDKISKEE [PDS5B], the protein stability index runs as follows: (treatment: DMSO) 5.02 ± 0.19; (treatment: MLN4924 1 uM, 8 h) 5.197 ± 0.006.
For RTNLPIFKLKESCVRRRYSDFEWL [SNX12], the protein stability index is, setting by setting: (treatment: DMSO) 2.27 ± 0.29; (treatment: MLN4924 1 uM, 8 h) 2.74 ± 0.56.
RTTSVRCRGIPRGPVRPAIPPPLS [NEK8]: the protein stability index was determined as 3.37 ± 0.1 (treatment: DMSO) and 3.64 ± 0.23 (treatment: MLN4924 1 uM, 8 h).
Take RTYKQRFLFAKLFSHITSARKARK [PHTF1]: the protein stability index was 2.17 ± 0.14 (treatment: DMSO) and 2.55 ± 0.58 (treatment: MLN4924 1 uM, 8 h).
In the same order, the values of RWNKVKMVVSREEVELAYQEAMFN [SEPHS2] are 2.62 ± 0.21 and 2.66 ± 0.29.
RWTSYRFSRVCRLHRGQLSLFCLE [TRIM35]: the protein stability index is 2.43 ± 0.54 (treatment: DMSO) and 2.23 ± 0.42 (treatment: MLN4924 1 uM, 8 h).
In the same order, the values of RYCMQLSQIQGLIGSVEEQLAQLR [KRT16] are 2.28 ± 0.45 and 2.49 ± 0.28.
In the same order, the values of RYLLCELVSDDPRCRLSLDDRVLS [POP5] are 2.31 ± 0.25 and 2.36 ± 0.27.
